Test results taken from a protein production outcome set (Wang et al. 2014).

Assay: label from the status in PepcDB records

Sequence | protein production
MSGPTWLPPKQPEPSRVPQGRALPRGTLGPPTAHGATLQPHPRVNFCPLPPEQCYQPPGVPEDRGPTWVGSHGAAQRLQGLPPDRGVIHPGSLDAEIDSLTSMLADLDGSRSHAPRRPDRQAFEAPPPHAYRGGSLKPSGGAVPAPMLPASPYGGPTPASYATASTPAGPAFPVQVKVAQPVRGCGLPRRGASQASGPLPGPHFPLTGRGEVWGAGYRSHREPGPGVKEGAAGVHNPAGGGRRGGHEPQGPLSQPPEEELERLTKKLVHDMNHPPSGEYFGRCGGCGDDVVGDGAGVVALDRVFHTGCFVCSTCRAQLRGQHFYAVERRAYCESCYVATLEKCSTCSEPILDRILRAMGKAYHPGCFTCVVCHRGLDGIPFTVDATSQIHCIEDFHRKFAPRCSVCGGAIMPEPGQEETVRIVALDRSFHIGCYKCEECGLLLSSEGECQGCYPLDGHILCKACSAWRIQELSATVTTDC | failed
MTKSVDTLLIPGPIILSGAVQKALDVPSLGHTSPEFVSIFQRVLKNTRAVFKSAAASKSQPFVLAGSGTLGWDIFASNFILSKAPNKNVLVVSTGTFSDRFADCLRSYGAQVDVVRPLKIGESVPLELITEKLSQNSYGAVTVTHVDTSTAVLSDLKAISQAIKQTSPETFFVVDAVCSIGCEEFEFDEWGVDFALTASQKAIGAPAGLSISLCSSRFMDYALNDSKNGHVHGYFSSLRRWTPIMENYEAGKGAYFATPPVQLINSLDVALKEILEEGLHKRWDLHREMSDWFKDSLVNGLQLTSVSRYPSNMSAHGLTAVYVADPPDVIAFLKSHGVVIAGGIHKDIGPKYIRIGHMGVTACNKNLPYMKNCFDLIKLALQRKK | not failed
MTFSQMILNLQNYWQEQGCAIMQPYDMPAGAGTFHPATFLRSLGKKPWAAAYVAPSRRPTDGRYGENPNRLGAYYQFQVLIKPSPDNIQELYLKSLENLGFDLKSHDIRFVEDNWESPSLGAWGLGWEVWLDGMEVTQFTYFQQVGGIAVDLVSAEITYGLERIAMYLQNVDNVYDIVWSEFNGEKIKYADVHKQSEYEFSKYNFEVSDVKILNEQFENSYKECKNILEQGLALPAYDYCMLAAHTFNLLDARGAISVAQRQDYMLKIRELSKNCAEIYKKNLNEAE | not failed
MDALVEDDICILNHEKAHKRDTVTPVSIYSGDESVASHFALVTAYEDIKKRLKDSEKENSLLKKRIRFLEEKLIARFEEETSSVGREQVNKAYHAYREVCIDRDNLKSKLDKMNKDNSESLKVLNEQLQSKEVELLQLRTEVETQQVMRNLNPPSSNWEVEKLSCDLKIHGLEQELELMRKECSDLKIELQKAKQTDPYQEDNLKSRDLQKLSISSDNMQHAYWELKREMSNLHLVTQVQAELLRKLKTSTAIKKGKSLFTGNH | not failed
MDRTQFTKIFTRYYMRSTSLGIIFTLFACAIRGVNLVVYLPYVLSASTCFTYLWASRTFTLEQKHQSVVIALILGYTLTFYLYFFLGGHFLFSSLVTINLLLTMVEFGVFWSFFTYALSMTFCFYIDLITAGNDPFKLHALKEFFIQSTFLFLFNLFIYKGLRSIECYWHGIWQKQYEQVEKLERLLEIDELTGCYSRFKGNQLIEQQIQRAQPFTLLYIDLDGFKAVNDEFGHDAGDKVLQITAQRILHLLDDGQFATRIGGDEFILCLPNIEDTKELEQFQSLLHHACSAPIFIHFQNVHIGLSVGMARFPHEGSCSDSLIQHADQMMYLTKRSRT | failed
MTIKRIFCDMDGTLLNSEGQVSKSNATLIREAAIPVTLVSARAPMEMKDAVDALQLGGVQVAFNGGLIYRIGDNNQVLPIHTQIIKKSTVKQLLRGIRFHFPQVSLSYYDLNNWYCDKIDEGIRYEHSLTQQCPTFIHNEDQFLEGHTNTFKIMMITFDEANMLELEKYLQSLELPEITIQRSGKAYLEITHLLAKKSKGIAYILQKEQLAREETAAFGDGHNDLPMLEMVGYPIVMDNAFDDIKAIAYQLTKSNDEDGVGYGIQKFLK | failed
MAVGKKDIECPPYAEGTPLSDADIKEKRVTYVEDHPDIRYSWTAGQAISKFLNGLKEGKILGVKCNKCGRVMVPPRMFCELCYKPIDGWVELKDTGTVETFSISYIDPDARPLPEPVIVAVISIDGASPHMGIMHILDEVKPEDVYIGMKVKAVWKSEEEREGAITDIKYWKPLEGLEHHHHHH | failed
MKVLITDFDLFAKVGGGQTFYRSLIRKNPDIDFYYLIDKEARVTERPDNAHGVPFQEKYFLADLNNFFDVNPPKWVYRSFIRASNIATSVAGMEFDLIDSPDYEQWAIFLRPALDYHRVKFAKIALSLHGKISTTLKLDWFNQGKENIPLELEEWKQYATVDLRYGISKSYIDEWQSLSRFSAHYYHPLHFFELPQPLEAIASGDRPDLNFVGRTEKRKGPDIFIDIAWWLNRNLYHEANIIGPHSFNDTGTISSETYLRSMLGDRQSPVKFLPPKPQQELMGLFARKTVTFVPSRYDTLNLVALESLFSGCPTVVGGGAGVCRLLKEDFPDVPFVEIDLDNIYSCLPAIENILSDYNNYRRRLVDSVKNSTAIADSPILADIYQQTGQYEEEIRDELQSWYGQLMGYWVSTQENVSFLQPLKAQLKPTLKQIKNNLKSTAGQLKGKILQPLADDRNAQLVKAPNLLKKYKEAFNATEQTAKDLAEKIQMGWRLGSGYESEFQGVRGKLATNYRIDRVRLWRELARIEELRGNTLVSATYKVRALRALGSDQFGDLPFVLRTLTEYGFPKEMAAVSALYGQPSEREERCLSLIEQARLDNLANPAGDEYEIWDDRRGDGPYRASIIVSLYNAAAKLPLFLKTLQHQTLIKRGEAEVVLVDSGSPGNEYEVFKDLAPTLGYPLLYARSPQRETIQSAWNRGIKLAKSPYLAFLGVDETILPDCLEILAGELDQDPELDWAIGHSLVTNVDMQGGWVSDIMPYDRTGYEQDLVYLETCYLSWVGALYRKSIHERFGYYDQSFRGAGDTEFKNRVMPFIKSKVVDKMLGLFWNYPDERTTQSPATEIEDMRAWYLHRTLAGVKYAFQRRSPREVENLLYHCLGYRKSYCKHTSTDFDHAHNLVTYLEKVDPNAEALKYAPGIEALLGTYRSLDWLPKLSKFSPLNSMLTARKLTKQWEQEHQQSWPEDRLFSPHYSIFNDNRHEQHSFLWFTDITASKK | failed
MAMVASVSMAFVLVFCTILLFHFVQQSRFTTATQLESIARSVREPLSAAILKADIPEAEAILSRIQPAGIVSRADVVLPNQFQALRMRFIPERPVPVTVTRLFELPVQISLPIYSLERPANPQPLAYLVLQADSYRMYKFVMSALATLVTAYLLLVLMLTVALTWCINRLMVRPLRRIARELNDLSQQERLGHQLTLPRLHHDDEIGMLVRSYNRNQQSLVRQHDELSIQSTRFPVSELPNKAFLLAMLEQTVARPQSAALIVVACETLQDAAGVLKESQREMLLLTLVEKLRAAIPPQMVLAQVSGYDFAILADGLAEPWQAVTLSKQVLTIINERLPLHGLQLRPYASVGIAMFHAGLSAEQFYRRAVSAAVTARRKGKNQIEFFDPEQMEKAQRRLMEEHDIMTALDNQQFAIWLQPQVACASGEICGAEVLLRQRQADGSWSLPPSLIERIESCGLIIPVGYWVMEEACRQLAAWQSQGIMLPLSVNVSLLQLLEHDRGEEMLKLIARYRIAPGTLILEVTESCRMDDPQDVMARLRPLREAGVQIALDDFGMGYAGLHQLQQMKALPVDILKIDKVFIDMLPEDVSMVPAMIQLARGLSLRIVAEGVENDAQRRWLQAAGVEVLQGHLFGCALPQEAFSARYLSPAREDVNL | failed
